We go through one molecule from publication PMC10071816 (bioRxiv, 2023).

For assay [1], the target named is human chaperonin TCP-1 ring complex (TRiC/CCT) (human) (UniProt P17987). Briefly: cryo-EM structure.
Assay [2] concerns the target CCT5, subunit of human TRiC (human, UniProt P48643 1-541). The assay is described as follows: cryo-EM structure.
Assay [3] deals with CCT1, subunit of human TRiC (human, UniProt P17987 1-556). Briefly: cross-linking.
The target of assay [4] is T1, CCT2, subunit of human TRiC (human, UniProt P78371 1-535).
T1 sequence: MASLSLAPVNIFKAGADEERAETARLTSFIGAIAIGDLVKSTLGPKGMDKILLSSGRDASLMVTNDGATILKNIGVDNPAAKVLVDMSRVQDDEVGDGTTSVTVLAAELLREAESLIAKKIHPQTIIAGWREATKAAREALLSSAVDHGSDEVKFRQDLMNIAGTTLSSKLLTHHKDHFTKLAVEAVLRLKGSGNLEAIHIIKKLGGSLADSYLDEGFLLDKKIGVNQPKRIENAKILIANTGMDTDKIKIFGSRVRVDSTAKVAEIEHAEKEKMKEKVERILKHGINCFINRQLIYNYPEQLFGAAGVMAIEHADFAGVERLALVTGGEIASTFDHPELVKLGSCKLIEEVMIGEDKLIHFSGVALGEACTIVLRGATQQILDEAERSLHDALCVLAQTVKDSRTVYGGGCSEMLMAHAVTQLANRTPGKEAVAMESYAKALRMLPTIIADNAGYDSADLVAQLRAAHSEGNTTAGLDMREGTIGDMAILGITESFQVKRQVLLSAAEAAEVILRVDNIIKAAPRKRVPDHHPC
Briefly: cross-linking.

Sequence of CCT5, subunit of human TRiC (P48643 whole entry): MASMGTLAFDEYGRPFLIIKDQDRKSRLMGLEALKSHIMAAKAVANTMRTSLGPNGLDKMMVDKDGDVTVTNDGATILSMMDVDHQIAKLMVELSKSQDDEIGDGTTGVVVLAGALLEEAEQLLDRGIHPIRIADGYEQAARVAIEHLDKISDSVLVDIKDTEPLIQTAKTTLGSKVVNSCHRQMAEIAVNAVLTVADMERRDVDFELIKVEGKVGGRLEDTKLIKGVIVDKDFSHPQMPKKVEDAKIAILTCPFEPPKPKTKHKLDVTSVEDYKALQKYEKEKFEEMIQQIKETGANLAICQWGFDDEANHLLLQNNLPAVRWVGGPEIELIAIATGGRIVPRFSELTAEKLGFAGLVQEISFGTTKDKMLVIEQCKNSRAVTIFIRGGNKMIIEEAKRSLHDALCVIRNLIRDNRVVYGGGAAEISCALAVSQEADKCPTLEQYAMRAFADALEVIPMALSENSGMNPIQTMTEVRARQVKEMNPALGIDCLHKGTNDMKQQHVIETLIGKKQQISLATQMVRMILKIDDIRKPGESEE
Sequence of CCT1, subunit of human TRiC (P17987 whole entry): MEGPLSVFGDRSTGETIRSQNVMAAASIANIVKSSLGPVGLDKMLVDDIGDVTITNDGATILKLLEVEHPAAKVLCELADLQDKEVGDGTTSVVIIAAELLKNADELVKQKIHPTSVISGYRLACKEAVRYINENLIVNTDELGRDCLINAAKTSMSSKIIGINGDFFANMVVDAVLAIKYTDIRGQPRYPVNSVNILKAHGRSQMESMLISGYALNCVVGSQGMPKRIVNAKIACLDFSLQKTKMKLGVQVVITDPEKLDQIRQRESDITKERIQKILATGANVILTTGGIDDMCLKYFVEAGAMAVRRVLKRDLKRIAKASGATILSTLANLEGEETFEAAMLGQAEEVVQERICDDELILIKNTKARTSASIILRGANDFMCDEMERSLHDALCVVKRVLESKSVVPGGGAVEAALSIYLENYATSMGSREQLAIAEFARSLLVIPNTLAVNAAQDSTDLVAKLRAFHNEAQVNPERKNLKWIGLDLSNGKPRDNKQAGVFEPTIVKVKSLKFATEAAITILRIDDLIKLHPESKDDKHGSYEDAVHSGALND

B1: phosducin-like protein PhLP2A, full length (natural protein)
chain: MQDPNADTEWNDILRKKGILPPKESLKELEEEAEEEQRILQQSVVKTYEDMTLEELEDHEDEFNEEDERAIEMYRRRRLAEWKATKLKNKFGEVLEISGKDYVQEVTKAGEGLWVILHLYKQGIPLCALINQHLSGLARKFPDVKFIKAISTTCIPNYPDRNLPTIFVYLEGDIKAQFIGPLVFGGMNLTRDELEWKLSESGAIMTDLEENPKKPIEDVLLSSVRRSVLMKRDSDSEGD
In assay [1], B1 displayed a percent of particles (3D classification) of 22.9%, a percent of particles with PhLP2A in both chambers of 9.5% and a percent of particles with PhLP2A in one chamber of 14%. For the same molecule, the binding result in assay [2] is recorded as “binds”. Further, the binding result in assay [3] was “binds”. Also, the binding result in assay [4] is “binds”.
